Assay results published in patent US6759384 (AVENTIS PHARMACEUTICALS, dated 2004).

Legend:
[1] = molecular target: T1, human factor Xa (Enzyme Research Laboratories, Inc.) (human, UniProt P00742 41-179; P00742 235-488, limits assumed); test: chromogenic enzyme inhibition, IC50 corrected for substrate
[2] = molecular target: human thrombin (Enzyme Research Laboratories, Inc.) (human, UniProt P00734 328-622); test: as above
[3] = molecular target: T1, human factor Xa (Enzyme Research …); test: chromogenic FXa inhibition
How it was run: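 Human FXa (0.5 nM) preincubated 10 min with inhibitor in TBS-P (pH 7.8, 200 mM NaCl, PEG-8000), then S-2765 added (140 μM). Initial hydrolysis rate read at 405 nm, 25° C.; IC50 by linear regression of relative rate vs log concentration.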

[4] = molecular target: T1, human factor Xa (Enzyme Research …); test: chromogenic FXa inhibition; remark: listed apart in the source
Experimental: TBS-P buffer (50 mM Tris-Cl, pH 7.8, 200 mM NaCl, 0.05% (w/v) PEG-8000, 0.02% (w/v) NaN_3) was used for this assay. The IC$50$ was determined by combining in appropriate wells of a Costar half-area microtiter plate 25 μl human factor Xa (Enzyme Research Laboratories, Inc.; South Bend Ind.) in TBS-P; 40 μl 10% (v/v) DMSO in TBS-P (uninhibited control) or various concentrations of a peptide to be tested diluted in 10% (v/v) DMSO in TBS-P; and substrate S-2765 (Nα-benzyloxycarbonyl-D-Arg-Gly-L-Arg-p-nitroanilide; Kabi Pharmacia, Inc.; Franklin Ohio) in TBS-P.
The assays were performed by pre-incubating the peptide inhibitor plus enzyme for 10 min, then the assay was initiated by adding substrate to obtain a final volume of 100 μl. The initial velocity of chromogenic substrate hydrolysis was measured by the change in absorbance at 405 nm using a Bio-tek Instruments kinetic plate reader (Ceres UV900HDi) at 25° C. during the linear portion of the time course (usually 1–5 min after addition of substrate). The concentration of inhibitor that caused a 50% decrease in the rate of substrate hydrolysis was predicted by linear regression after plotting the relative rates of hydrolysis (compared to the uninhibited control) versus the log of the peptide concentration. The enzyme concentration was 0.5 nM and substrate concentration was 140 μM.

T1 sequence (P00742 41-179 limits assumed, chain 1 of 2): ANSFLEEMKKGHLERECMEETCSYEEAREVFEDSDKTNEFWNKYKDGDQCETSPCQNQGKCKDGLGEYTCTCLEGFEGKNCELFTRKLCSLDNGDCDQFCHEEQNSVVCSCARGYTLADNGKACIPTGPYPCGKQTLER
T1 sequence (P00742 235-488 limits assumed, chain 2 of 2): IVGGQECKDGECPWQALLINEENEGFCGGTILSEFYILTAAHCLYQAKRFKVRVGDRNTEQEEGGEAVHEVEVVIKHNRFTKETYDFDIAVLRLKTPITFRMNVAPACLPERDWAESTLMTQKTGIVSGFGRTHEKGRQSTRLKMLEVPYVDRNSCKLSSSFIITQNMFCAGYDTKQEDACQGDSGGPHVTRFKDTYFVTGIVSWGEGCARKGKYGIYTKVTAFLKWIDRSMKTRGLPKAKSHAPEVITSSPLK

Ki [1] [µM]	Ki [2] [µM]	Ki [3] [µM]	Ki [4] [µM]	Binder
0.04	25	< 100	–	XIRLP (N-term Ac; N-(iBu) on Y1; C-term NH2) [Ac-(iBu)Y-I-R-L-P-NH2]
–	–	< 100	2.6	XIRLP (N-(iBu) on Y1; C-term NH2) [(iBu)Y-I-R-L-P-NH2]
